Measured values reported in the supplement of paper PMC11246515.
± gives the standard deviation of the averaged measurements.

Assay: total protein half-life in vivo (active degradation + dilution); higher = more stable protein
[1] = E. coli NCM3722 delta-clpP delta-lon delta-hslV, growth: N-lim chemostat, doubling time 6 h
[2] = E. coli NCM3722 delta-clpP, growth: N-lim chemostat, doubling time 6 h
[3] = E. coli NCM3722 delta-hslV, growth: N-lim chemostat, doubling time 6 h
[4] = E. coli NCM3722 delta-lon, growth: N-lim chemostat, doubling time 6 h
[5] = E. coli NCM3722 delta-smpB, growth: N-lim chemostat, doubling time 6 h
[6] = wild type E. coli NCM3722, growth: C-lim chemostat, doubling time 3 h
[7] = wild type E. coli NCM3722, growth: C-lim chemostat, doubling time 6 h
[8] = wild type E. coli NCM3722, growth: C-lim chemostat, doubling time 12 h
[9] = wild type E. coli NCM3722, growth: N-lim chemostat, doubling time 6 h
[10] = wild type E. coli NCM3722, growth: N-lim chemostat, doubling time 12 h
[11] = wild type E. coli NCM3722, growth: P-lim chemostat, doubling time 6 h
[12] = wild type E. coli NCM3722, growth: P-lim chemostat, doubling time 12 h

| Sequence | total protein half-life in vivo [1] | total protein half-life in vivo [2] | total protein half-life in vivo [3] | total protein half-life in vivo [4] | total protein half-life in vivo [5] | total protein half-life in vivo [6] | total protein half-life in vivo [7] | total protein half-life in vivo [8] | total protein half-life in vivo [9] | total protein half-life in vivo [10] | total protein half-life in vivo [11] | total protein half-life in vivo [12] |
| --- | --- | --- | --- | --- | --- | --- | --- | --- | --- | --- | --- | --- |
| MVKLPPLSLYIHIPWCVQKCPYCDFNSHALKGEVPHDDYVQHLLNDLDNDVAYAQGREVKTIFIGGGTPSLLSGPAMQTLLDGVRARLPLAADAEITMEANPGTVEADRFVDYQRAGVNRISIGVQSFSEEKLKRLGRIHGPQEAKRAAKLASGLGLRSFNLDLMHGLPDQSLEEALGDLRQAIELNPPHLSWYQLTIEPNTLFGSRPPVLPDDDALWDIFEQGHQLLTAAGYQQYETSAYAKPGYQCQHNLNYWRFGDYIGIGCGAHGKVTFPDGRILRTTKTRHPRGFMQGRYLESQRDVEATDKPFEFFMNRFRLLEAAPRVEFIAYTGLCEDVIRPQLDEAIAQGYLTECADYWQITEHGKLFLNSLLELFLAE | 4.14 ± 1.6 h | 5.76 ± 2.5 h | 4.32 ± 0.36 h | 4.24 ± 0.52 h | 3.734 ± 0.022 h | 3.01 ± 0.05 h | 4.82 ± 0.96 h | 8.1 ± 1.6 h | 4.03 ± 0.08 h | 6.81 ± 0.47 h | 5.41 ± 0.25 h | 10.4 ± 0.86 h |
| MVKSQPILRYILRGIPAIAVAVLLSACSANNTAKNMHPETRAVGSETSSLQASQDEFENLVRNVDVKSRIMDQYADWKGVRYRLGGSTKKGIDCSGFVQRTFREQFGLELPRSTYEQQEMGKSVSRSNLRTGDLVLFRAGSTGRHVGIYIGNNQFVHASTSSGVIISSMNEPYWKKRYNEARRVLSRS [P0AFV4] | 2.68 ± 0.98 h | 2.09 ± 0.79 h | 2.61 ± 1.4 h | 2.34 ± 0.085 h | 2.33 ± 0.45 h | 1.02 ± 0.41 h | 3.38 ± 0.45 h | 7.8 ± 1.4 h | 2.19 ± 1.5 h | 4.29 ± 1.6 h | 3.39 ± 0.15 h | 4.64 ± 0.49 h |
| MVKTQRVVITPGEPAGIGPDLVVQLAQREWPVELVVCADATLLTNRAAMLGLPLTLRPYSPNSPAQPQTAGTLTLLPVALRAPVTAGQLAVENGHYVVETLARACDGCLNGEFAALITGPVHKGVINDAGIPFTGHTEFFEERSQAKKVVMMLATEELRVALATTHLPLRDIADAITPALLHEVIAILHHDLRTKFGIAEPRILVCGLNPHAGEGGHMGTEEIDTIIPVLNELRAQGMKLNGPLPADTLFQPKYLDNADAVLAMYHDQGLPVLKYQGFGRGVNITLGLPFIRTSVDHGTALELAGRGKADVGSFITALNLAIKMIVNTQ | 4.27 h | 3.54 h | 3.58 h | 4.45 ± 0.1 h | 4.72 ± 0.25 h | 2.98 ± 0.15 h | 5.541 ± 0.046 h | 9.78 ± 0.65 h | 4.33 h | 7.247 ± 0.038 h | 4.67 ± 0.49 h | 9.91 ± 0.5 h |
| MVKVYAPASSANMSVGFDVLGAAVTPVDGALLGDVVTVEAAETFSLNNLGRFADKLPSEPRENIVYQCWERFCQELGKQIPVAMTLEKNMPIGSGLGSSACSVVAALMAMNEHCGKPLNDTRLLALMGELEGRISGSIHYDNVAPCFLGGMQLMIEENDIISQQVPGFDEWLWVLAYPGIKVSTAEARAILPAQYRRQDCIAHGRHLAGFIHACYSRQPELAAKLMKDVIAEPYRERLLPGFRQARQAVAEIGAVASGISGSGPTLFALCDKPETAQRVADWLGKNYLQNQEGFVHICRLDTAGARVLEN | 5.55 ± 0.88 h | 3.7 ± 0.34 h | 4.29 ± 0.69 h | 5.16 ± 0.65 h | 4.35 ± 0.11 h | 2.73 ± 0.61 h | 5.63 ± 0.58 h | 8.58 ± 0.091 h | 4.31 ± 0.33 h | 6.8 ± 0.37 h | 6.04 ± 0.13 h | 12.6 ± 0.79 h |
| MVLMIVSGRSGSGKSVALRALEDMGFYCVDNLPVVLLPDLARTLADREISAAVSIDVRNMPESPEIFEQAMSNLPDAFSPQLLFLDADRNTLIRRYSDTRRLHPLSSKNLSLESAIDKESDLLEPLRSRADLIVDTSEMSVHELAEMLRTRLLGKRERELTMVFESFGFKHGIPIDADYVFDVRFLPNPHWDPKLRPMTGLDKPVAAFLDRHTEVHNFIYQTRSYLELWLPMLETNNRSYLTVAIGCTGGKHRSVYIAEQLADYFRSRGKNVQSRHRTLEKRKP [P0A894] | 5.6 ± 1.1 h | 4.58 ± 0.2 h | 4.92 ± 0.47 h | 5.04 ± 0.64 h | 4.453 ± 0.016 h | 3.02 ± 0.095 h | 6.62 ± 1.3 h | 11.5 ± 0.81 h | 4.48 ± 0.31 h | 7.88 ± 1.8 h | 5.95 ± 0.11 h | 12.1 ± 0.55 h |
| MVPVVALVGRPNVGKSTLFNRLTRTRDALVADFPGLTRDRKYGRAEIEGREFICIDTGGIDGTEDGVETRMAEQSLLAIEEADVVLFMVDARAGLMPADEAIAKHLRSREKPTFLVANKTDGLDPDQAVVDFYSLGLGEIYPIAASHGRGVLSLLEHVLLPWMEDLAPQEEVDEDAEYWAQFEAEENGEEEEEDDFDPQSLPIKLAIVGRPNVGKSTLTNRILGEERVVVYDMPGTTRDSIYIPMERDGREYVLIDTAGVRKRGKITDAVEKFSVIKTLQAIEDANVVMLVIDAREGISDQDLSLLGFILNSGRSLVIVVNKWDGLSQEVKEQVKETLDFRLGFIDFARVHFISALHGSGVGNLFESVREAYDSSTRRVGTSMLTRIMTMAVEDHQPPLVRGRRVKLKYAHAGGYNPPIVVIHGNQVKDLPDSYKRYLMNYFRKSLDVMGSPIRIQFKEGENPYANKRNTLTPTQMRKRKRLMKHIKKNK [P0A6P5] | 5.18 ± 0.36 h | 5.53 ± 0.68 h | 4.51 ± 0.067 h | 4.88 ± 0.11 h | 4.59 ± 0.29 h | 3.2 ± 0.2 h | 5.55 ± 0.11 h | 10.3 ± 0.65 h | 4.6 ± 0.16 h | 7.38 ± 0.25 h | 5.43 ± 0.67 h | 10.8 ± 0.39 h |
| MVRKGCNSLVRAEKILTHIAWVGMASYMELLNKFQYPKSSLLNLLNVMVDCGFLIKNKNGYYSLGIKNYELGCQALHRQNIFEVTKRPMQELSLKSGLVCHLGAMESISAIYLDKIESPDSVPTSKSWIGKKLELHITALGKALLAWKTREELDYFLEALTLTPHTRNTFTDKKLFLEELQKTRLRGWAIDNEESTYGAVCLSMPVFNMYNRVNYAISLSGDPVVYSGNKIDSYLELLRKCAEQISYGLGYRNENEHLRKGN | – | – | – | – | – | 1.15 h | 1.6 ± 0.092 h | 2.7 ± 0.086 h | – | 3.16 h | – | – |
| MVSETKTTEAPGLRRELKARHLTMIAIGGSIGTGLFVASGATISQAGPGGALLSYMLIGLMVYFLMTSLGELAAYMPVSGSFATYGQNYVEEGFGFALGWNYWYNWAVTIAVDLVAAQLVMSWWFPDTPGWIWSALFLGVIFLLNYISVRGFGEAEYWFSLIKVTTVIVFIIVGVLMIIGIFKGAQPAGWSNWTIGEAPFAGGFAAMIGVAMIVGFSFQGTELIGIAAGESEDPAKNIPRAVRQVFWRILLFYVFAILIISLIIPYTDPSLLRNDVKDISVSPFTLVFQHAGLLSAAAVMNAVILTAVLSAGNSGMYASTRMLYTLACDGKAPRIFAKLSRGGVPRNALYATTVIAGLCFLTSMFGNQTVYLWLLNTSGMTGFIAWLGIAISHYRFRRGYVLQGHDINDLPYRSGFFPLGPIFAFILCLIITLGQNYEAFLKDTIDWGGVAATYIGIPLFLIIWFGYKLIKGTHFVRYSEMKFPQNDKK | – | > 8 h | – | 5.36 h | 6.44 h | – | > 8 h | > 16 h | 6.92 h | – | 6.22 h | 8.87 h |
| MVSRRVQALLDQLRAQGIQDEQVLNALAAVPREKFVDEAFEQKAWDNIALPIGQGQTISQPYMVARMTELLELTPQSRVLEIGTGSGYQTAILAHLVQHVCSVERIKGLQWQARRRLKNLDLHNVSTRHGDGWQGWQARAPFDAIIVTAAPPEIPTALMTQLDEGGILVLPVGEEHQYLKRVRRRGGEFIIDTVEAVRFVPLVKGELA [P0A7A5] | 5.04 ± 0.19 h | 3.95 ± 0.35 h | 4.65 ± 0.94 h | 4.71 ± 0.85 h | 3.64 ± 0.14 h | 2.7898 ± 0.0014 h | 4.83 ± 2.6 h | 8.88 ± 0.65 h | 3.85 ± 0.078 h | 6.43 ± 0.091 h | 5.57 ± 0.56 h | 10.2 ± 0.73 h |
| MVSRYVPDMGDLIWVDFDPTKGSEQAGHRPAVVLSPFMYNNKTGMCLCVPCTTQSKGYPFEVVLSGQERDGVALADQVKSIAWRARGATKKGTVAPEELQLIKAKINVLIG [P0AE70] | 6.61 ± 0.43 h | – | 6.264 ± 0.046 h | 6.6 ± 0.43 h | 5.59 ± 0.098 h | 3.16 ± 0.28 h | 5.35 ± 0.39 h | – | 4.02 ± 0.46 h | 9.87 ± 1.7 h | 6.19 h | 11 ± 0.37 h |
| MVTINTESALTPRSLRDTRRMNMFVSVAAAVAGLLFGLDIGVIAGALPFITDHFVLTSRLQEWVVSSMMLGAAIGALFNGWLSFRLGRKYSLMAGAILFVLGSIGSAFATSVEMLIAARVVLGIAVGIASYTAPLYLSEMASENVRGKMISMYQLMVTLGIVLAFLSDTAFSYSGNWRAMLGVLALPAVLLIILVVFLPNSPRWLAEKGRHIEAEEVLRMLRDTSEKAREELNEIRESLKLKQGGWALFKINRNVRRAVFLGMLLQAMQQFTGMNIIMYYAPRIFKMAGFTTTEQQMIATLVVGLTFMFATFIAVFTVDKAGRKPALKIGFSVMALGTLVLGYCLMQFDNGTASSGLSWLSVGMTMMCIAGYAMSAAPVVWILCSEIQPLKCRDFGITCSTTTNWVSNMIIGATFLTLLDSIGAAGTFWLYTALNIAFVGITFWLIPETKNVTLEHIERKLMAGEKLRNIGV [P0AE24] | – | – | – | – | – | – | – | – | – | 9.72 h | – | – |
| MWIGIISLFPEMFRAITDYGVTGRAVKNGLLSIQSWSPRDFTHDRHRTVDDRPYGGGPGMLMMVQPLRDAIHAAKAAAGEGAKVIYLSPQGRKLDQAGVSELATNQKLILVCGRYEGIDERVIQTEIDEEWSIGDYVLSGGELPAMTLIDSVSRFIPGVLGHEASATEDSFAEGLLDCPHYTRPEVLEGMEVPPVLLSGNHAEIRRWRLKQSLGRTWLRRPELLENLALTEEQARLLAEFKTEHAQQQHKHDGMA [P0A873] | 4.44 ± 1.1 h | 4.01 ± 0.084 h | 4.21 ± 0.043 h | 4.7 ± 0.54 h | 4.21 ± 0.33 h | 3.04 ± 0.49 h | 5.88 ± 0.59 h | 8.46 ± 1.3 h | 4.25 ± 0.34 h | 7.45 ± 0.68 h | 5.85 ± 0.19 h | 10.4 ± 0.29 h |
